The subject of test [1] is 35S::PYR1^MANDI transgenic strain. Nature of the test: Thermography of leaf temperature after chemical treatment. Type of test: in vivo, Arabidopsis thaliana. The following applies: 1 μM then 10 μM mandipropamid, 24 hours after treatment; FIG. 10. From the text:
To examine the effects of over-expressing either PYR1*^-MANDI or HAB1* in Arabidopsis thaliana, we made 35S-driven GFP-PYR1*^-MANDI and GFP-HAB1* constructs by cloning the mutant genes into the binary vector pEGAD, and the resultant plasmids were transformed into Agrobacterium tumefaciens. The floral dip method was used to generate T0 transgenic seed for both constructs and the T0 seed was germinated in soil containing glufosinate to select for transgenic T1 plants. The PYR1*^-MANDI T1 plants isolated were grown for ˜5 weeks and then treated with mandipropamid, using comparisons to wild type Columbia plants and a previously constructed 35S::PYR1^MANDI transgenic strain as controls. The treated plants were thermographed 24 hours after chemical applications to examine leaf temperature, which increases after ABA responses are activated, due to reduced transpiration. To examine different mandipropamid concentrations, the plants were first treated with 1 μM mandipropamid and then 3 days later were treated again with 10 μM mandipropamid.

The subject of another test is HAB1^!-2. Nature of the test: Yeast two hybrid, mandipropamid-promoted interaction of PYR1 variants with HAB1^!-2. The test is classed as cell-based. From the text: To engineer orthogonal mandipropamid responsiveness, we introduced the PYR1^! mutation into the PYR1^MANDI receptor to create a septuple mutant called PYR1^!-MANDI (PYR1^Y58H;K59R;V81I;F108A;S122G;F159L;T162D). This mutant interacts with HAB1^! and HAB^!-2 in response to low μM mandipropamid in yeast two-hybrid assays, but is ˜100-fold less sensitive than the PYR1^MANDI/HAB1 interaction, which responds to concentrations in the low nM range (FIG. 3).
To improve sensitivity, we mutagenized ligand contacting and interface residues in PYR1^!-MANDI using NNK primers, pooled the mutant libraries, and used the mutagenized receptors in selection experiments using to identify enhancer mutations. The NNK mutagenesis screen targeted the following residues: P55, H60, F61, I62, K63, V83, S85, G86, L87, P88, A89, S92, E94, I110, H115, R116, L117, Y120, E141, P148, G150, N151, D154, D155, T156, M158, A160, V163, V164, L166, N167, and K170. […] Since M158 and A160 flank the […] mutation present in PYR1^MANDI, we inferred that the closely located orthogonalizing T162D mutation in PYR1^!-MANDI may have reduced mandipropamid sensitivity by altering the local structure of the C-terminal α3-helix, which participates in ligand-induced conformational changes needed for PP2C binding (Nishimura et al., 2009). We therefore simultaneously mutagenized positions M158, F159 and A160 using a primer with degenerate NNK codons at all three positions. F159 was included in this mutagenesis because we have previously observed that multiple substitutions at F159 (A,C,I,L,M,T, or V) are permissive for mandipropamid responsiveness (S. Y. Park et al., n.d.), and sought to test whether residues other than leucine at position 159 might function better in the context of simultaneous changes to both A160 and M158. The mutagenic primer was used in QuickChange mutagenesis reactions using pBD-PYR1^!-MANDI template, and a library of ˜12,000 clones was generated. Plasmid DNA for the library was prepared from pooled E. coli transformants, and subsequently transformed into S. cerevisiae strain MAV99 harboring pACT-HAB1^!-2. ˜20,000 yeast transformants were generated, pooled, and plated onto SD(-Leu,-Trp) agar media supplemented with 0.1% fluorotic acid (to select against mutants that interact in a ligand-independent fashion). The surviving cells were collected and plated onto SD(Leu,-Trp,-Ura) plates supplemented with 50 nM mandipropamid. The colonies displaying the best uracil-independent growth were isolated and retested on different mandipropamid concentrations and then stained in β-galactosidase assays to rank their relative strength.

Two molecules from patent US10919943B2, “Mutant proteins enabling agrochemical control of plant gene expression” (The Regents of the University of California, priority 2016, dated 2021) can be followed below.

Turning to `C#CCOc1ccc(CCNC(=O)C(OCC#C)c2ccc(Cl)cc2)cc1OC` (stereo not drawn) [mandipropamid], the leaf temperature entry in test [1] is reported as “strong increase in leaf temperature”.

B1: PYR1*^-MANDI: PYR1 mutant with 9 mutations, most sensitive to mandipropamid (protein, listed as Arabidopsis thaliana)
chain: MPSELTPEERSELKNSIAEFHTYQLDPGSCSSLHAQRIHAPPELVWSIVRRFDKPQTHRHFIKSCSVEQNFEMRVGCTRDIIVISGLPANTSTERLDILDDERRVTGASIIGGEHRLTNYKGVTTVHRFEKENRIWTVVLESYVVDMPEGNSEDDTRIVVDDVVKLNLQKLATVAEAMARNSGDGSGSQVT
For the molecule B1, the “mandipropamid concentration to which the interaction responds” value in the test with HAB1^!-2 (FIG. 3, FIG. 4) is “nM levels”. Further, the “relative mandipropamid sensitivity among selected mutants” value with HAB1^!-2 (β-galactosidase assays on different mandipropamid concentrations) is on record as “most sensitive mutant”.
